Test results from patent publication US20230405140A1 (MCSAF INSIDE ONCOLOGY, published 2023).

Key:
CD56 [1] = target: T1, CD56 (UniProt P13591 20-858, limits assumed); assay: cell-based or functional assay
HER2 = target: T2, HER2 (UniProt P04626 23-1255, limits assumed); assay: immunocytochemistry with peroxidase secondary antibody, SKBR3 cells (HER2-positive, no CD56); '-' = absence of fixation
T2 construct: whole, on cells; SK-BR-3 (SKBR3) cells, CD56-negative control line

CD56 [2] = target: T1, CD56; assay: cell-based or functional assay; remark: listed apart in the source
CD56 [3] = target: T1, CD56; assay: cell-based or functional assay; remark: listed apart in the source

B1: MF-m906-MMAE (antibody, human IgG1, kappa)
heavy: not shown
light: DVVMTQSPLSLPVTPGEPASISCRSSQSLLHSNGYNFLDWYLQKPGQSPQLLIYLGSNRASGVPDRFSGSGSGTDFTLKISRVEADDVGVYYCMQSLQTPWTFGHGTKVEIKRTVAAPSVFIFPPSDEQLKSGTASVVCLLNNFYPREAKVQWKVDNALQSGNSQESVTEQDSKDSTYSLSSTLTLSKADYEKHKVYACEVTHQGLSSPVTKSFNRGEC
modifications: MMAE linker-drug (pyridine-caproic-ValCit-PABc-MMAE, compound 8) grafted on interchain cysteines; mean DAR 3.89
Q: B1 was tested. Which “IC50, XTT cytotoxicity test, H69 small cell lung carcinoma line” value (CD56 [1]) did it give?
A: Its value is 1 to 2 nM.

B2: m906 (antibody, human IgG1, kappa)
heavy: not shown
light: DVVMTQSPLSLPVTPGEPASISCRSSQSLLHSNGYNFLDWYLQKPGQSPQLLIYLGSNRASGVPDRFSGSGSGTDFTLKISRVEADDVGVYYCMQSLQTPWTFGHGTKVEIKRTVAAPSVFIFPPSDEQLKSGTASVVCLLNNFYPREAKVQWKVDNALQSGNSQESVTEQDSKDSTYSLSSTLTLSKADYEKHKVYACEVTHQGLSSPVTKSFNRGEC
notes: also called mAb-001; anti-CD56 antibody m906
Q: Does B2 bind (HER2)?
A: Result: no binding (tested: 650 ng/mL)

B3: MIO-003 (antibody, human IgG1, kappa, N297A)
heavy: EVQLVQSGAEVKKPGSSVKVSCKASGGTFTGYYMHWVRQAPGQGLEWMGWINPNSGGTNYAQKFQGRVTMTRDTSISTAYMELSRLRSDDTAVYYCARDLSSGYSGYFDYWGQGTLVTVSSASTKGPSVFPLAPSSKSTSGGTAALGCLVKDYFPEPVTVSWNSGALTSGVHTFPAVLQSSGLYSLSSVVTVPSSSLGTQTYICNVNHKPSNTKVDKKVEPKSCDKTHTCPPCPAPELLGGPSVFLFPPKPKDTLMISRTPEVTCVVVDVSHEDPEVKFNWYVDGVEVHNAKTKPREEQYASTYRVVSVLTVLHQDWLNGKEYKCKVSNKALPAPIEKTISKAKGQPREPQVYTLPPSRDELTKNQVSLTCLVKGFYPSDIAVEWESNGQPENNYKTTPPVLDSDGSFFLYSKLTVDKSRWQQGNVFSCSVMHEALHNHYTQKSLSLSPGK
light: DVVMTQSPLSLPVTPGEPASISCRSSQSLLHSNGYNFLDWYLQKPGQSPQLLIYLGSNRASGVPDRFSGSGSGTDFTLKISRVEADDVGVYYCMQSLQTPWTFGHGTKVEIKRTVAAPSVFIFPPSDEQLKSGTASVVCLLNNFYPREAKVQWKVDNALQSGNSQESVTEQDSKDSTYSLSSTLTLSKADYEKHKVYACEVTHQGLSSPVTKSFNRGEC
modifications: MMAE linker-drug (pyridine-caproic-ValCit-PABc-MMAE) as in MIO-001; attachment residues not itemised
Q: B3 was tested. Which “IC50 (pM), XTT assay, H69 n = 3” value (CD56 [2]) did it give?
A: Its value is 1950 pM.

Q: What about the “IC50 (pM), XTT assay, H209 n = 3” value (CD56 [2]) of the same binder?
A: Its value is 22100 pM.

Q: And the “IC50 (pM), XTT assay, PeTa n = 3” value (CD56 [3])?
A: Its value is 14900 pM.

Q: And the “IC50 (pM), XTT assay, WaGa n = 3” value (CD56 [3])?
A: Its value is 10300 pM.
